Measurements from the DeepSol protein solubility set.

Test: soluble on expression in E. coli; label from the status in PepcDB or PDB records

Sequence | soluble on expression in E. coli
MSIASVASVFKGEHAVGSTVTVRGWVRTRRDSKAGISFLAVYDGSCFNPIQGVVPNSLENYDNEVLKLTAGCSVIVTGDIVESPGAGQAYELQVTAVEVTGWVEDPDTYPMAAKRHSIEHLRELAHLRPRTNIIGAVARVRNCLSQAIHRFYHENGFVWVSTPLITASDCEGAGEMFRVSTLDMENLPRTSDGKVDYDKDFFGKEAFLTVSGQLNGETYACALSKIYTFGPTFRAENSNTSRHLAEFWMVEPEVAFATLNDIAGLAEGMLKYAFNAVLTERMDDLQFFAQHVDKTVIERLQSFVSSDFAQVDYTDAVEILQKSGREFEFPVSWGIDLSSEHERYLAEEHFKAPVVVKNYPKDIKAFYMRLNEDGKTVAAMDVLAPGIGEIIGGSQREERLDVLDMRLEEMDLNKEDYWWYRDLRRYGTVPHAGFGLGFERLVSYVTGVSNIRDVIPFPRAPRTANFLEHHHHHH | soluble
MSIHVNEANLTFHLQTDHTSYIFQIMKNGEAGQIYYGPRIHVQPTYQNLMSQEWRDATPSLNEENPNFQPATIKAEYASLGKGDFRQPAFQVTQANGSRITELTYDHYQLLTGKQRLANLPSTFDDTDDDAQTLVVSFNDRITGLALDLNYSIFPHQDVIVKSAKFTNPSSEKLVLNRALSSQLDLPDANYDLIQFSGTWARERHLYRHPLRPGMQSISSLRMASSHQQNPFMMLARPQTTDEQGAVFGFNLVYSGNFLDAIEVDQYSTSRILTGINPDEFGWNLAPQATFQTPEAILSYTSAGMNQLSQQMASFYQQHLVNPRFAHEERPVLINNWEATYFDFNEAKLMTIVNQAKRLGIEMFVLDDGWFGHRDDDTTSLGDWFVDQRKFPDGIEHFSQAVHQQGMKFGLWFEPEMVSVDSDLYQQHPDWLIHAPKSTPTPGRHQFVLDMARPEVVDYLFKLMSQMIESANLDYIKWDMNRYATEMFSSRLTSDQQLELPHRYILGVYQLYARLTQAYPNVLFESCASGGGRFDLGMMYYAPQAWTSDDTDAAERLLIQFGTSYGYPQAMMGAHVSAVPNDQMGRITSLKTRGAVAFFGDLGYELDITKMAPTELDQVKKQVAFYKCYRQLFQFGKFYRIDSPFVEDGNVTSWQVVSDDQKQAIAARYQLLNHPNAPYTRFYFKGLRPNQRYQINDDPSTYYGDELMNAGYFVPTILADGQESKDFYTQLFVVTAILEHHHHHH | soluble
MSIKEQTLMTPYLQFDRNQWAALRDSVPMTLSEDEIARLKGINEDLSLEEVAEIYLPLSRLLNFYISSNLRRQAVLEQFLGTNGQRIPYIISIAGSVAVGKSTTARVLQALLSRWPEHRRVELITTDGFLHPNQVLKERGLMKKKGFPESYDMHRLVKFVSDLKSGVPNVTAPVYSHLIYDVIPDGDKTVVQPDILILEGLNVLQSGMDYPHDPHHVFVSDFVDFSIYVDAPEDLLQTWYINRFLKFREGAFTDPDSYFHNYAKLTKEEAIKTAMTLWKEINWLNLKQNILPTRERASLILTKSANHAVEEVRLRK | soluble
MSILEQVQPIETMLPERYYTMSTEDMEKRVREIKEKMGKMLFIPGHHYQKDEVVQFSDAVGDSLQLAQVAASNKDAKYIVFCGVHFMAETADMLTTDDQVVILPDMRAGCSMADMADIEQTERAWKELTKLFGDTMIPLTYVNSTAAIKAFCGRNGGATVTSSNAKQMVSWAFTQKERLVFLPDQHLGRNTAYDLGIPLDKMAVWDPHTDSLEYDGDIEEIQVILWKGHCSVHQNFTVKNIESVRKNHSDMNIIVHPECCYEVVAASDYAGSTKYIIDMIESAPPGSKWAIGTEMNLVNRIIQQHPDKEIVSLNPFMCPCLTMNRIDLPHLLWALETIERGEEINVISVDKQVTAEAVLALNRMLERV | not soluble
MSILLVKNAQIVNDDAIFVADILIEDGIIQNVAPNLEAPEGAEVLDAAGKLALPAGIDVYTQVTDSSVDDLSTGCKSAIAGGTGTIVEVVRPRGAESVVSAVKRVKNQLEKSGISCHVALSVAITDFCEQEMSELVKNEGINSFVLDGVSLTDDKLLELFEHVKRLGALIRVVPENKSIVAMLEKKMLKLGVTGPEGFPQSRPESLEADRVSGVCVLGNLASCPISIVQVSSADSLAAIEKARASGALAHAEIASAAVTADGSALFSQDLRFASAHLTDVPLRRGAPDRMIGALSTQPLVVCTSGHRPVNSATRVAAKDFAIAQKGSTGAEERMAVVWERAVRSGRIDAMRFVAVTSTNAAKMFNMYPKKGRIAVGADADLVIWDASGKRVLESSRAQSSQENSMYDGLTVHSVVTATIVGGKIAYQNGEVREAPVAGGFLRLSPNSPYLFSMVGQRDKFANVERVEREASSQQQKPQQNGHHKNSGDFDRNRTKVMESSIDFGGSAANRPRNPPGGRTTGFW | not soluble
MSIMGKVAKLDSAMQRGLDNSFAFVFGGKLVPAEIEELLKQEVQDNIVRAYEGGVESPNVFRVRVSRKDAQNLAQRYPSLADDFADRLSRYTRNQGWSTEGPVVVTIAADSGLRTGQLHASSAFDPVPQEYSHFIGVEDDVAAAAPTNDESNYESESGMNSYDADPRTEYMTAQAPDAIYTEVPVPEPKATPTVSLLLQDGSSRTYLVEEGSNIIGRSNEAHFRLPDTGVSRQHAEITWNGRDAILTDLKSTNGTTVNDTPVENWLLEDGDVITVGHSHIEVRIVEPN | not soluble
MSIMLPINNNFSLSQNSFYNTISGTYADYFSAWDKWEKQALPGENRNEAVSLLKECLINQFSELQLNRLNLSSLPDNLPPQITVLEITQNALISLPELPASLEYLDACDNRLSTLPELPASLKHLDVDNNQLTMLPELPALLEYINADNNQLTMLPELPTSLEVLSVRNNQLTFLPELPESLEALDVSTNLLESLPAVPVRNHHSEETEIFFRCRENRITHIPENILSLDPTCTIILEDNPLSSRIRESLSQQTAQPDYHGPRIYFSMSDGQQNTLHRPLADAVTAWFPENKQSDVSQIWHAFEHEEHANTFSAFLDRLSDTVSARNTSGFREQVAAWLEKLSASAELRQQSFAVAADATESCEDRVALTWNNLRKTLLVHQASEGLFDNDTGALLSLGREMFRLEILEDIARDKVRTLHFVDEIEVYLAFQTMLAEKLQLSTAVKEMRFYGVSGVTANDLRTAEAMVRSREENEFTDWFSLWGPWHAVLKRTEADRWALAEEQKYEMLENEYPQRVADRLKASGLSGDADAEREAGAQVMRETEQQIYRQLTDEVLALRLPENGSQLHHS | soluble
MSINVDEFQCYRIPNVYVQWYDLEPTIHWLTGGNSNSRQIQEMDQKKKKIRSTSAYALFFRERQSLEKRAAPYATFGQISQKIARQWDSLTEEEKKAYKQRCEKNRKTSIANAVEEKARQLLTASKFQ | not soluble
MSIPEELWRRFQEGDPRALARALTLVESGHPAGRELLKRVRGKGRAKVVGVTGSPGAGKSTLTDRLILEARKRGERVAVLAVDPSSPFSGGAILGDRIRMMRHHQDPGVYIRSMASRGALGGLAGATVAALSLLEAFGFDRIFVETVGVGQSEVDIARVADTTLLVLTPAAGDAVQAFKAGVMEIADVFAVNKFDLPGGERIVQELKSALELSPPRPGGWRPPIHPTVAASGEGVEALFESLEAHHRHLVEHGLLEAHRLERARFEVESVIQEWGRQRTQGAGALVARVARGELTPEEAALALLGPGPEAEEGAL | soluble
MSIWKEAKDASGRIYYYNTLTKKSTWEKPKELISQEELLLRENGWKAAKTADGKVYYYNPTTRETSWTIPAFEKK | soluble
MSIYKIPLPLNILEAARERITWTLNTLPRVCVSFSGGKDSGLMLHLTAELARQMGKKICVLFIDWEAQFSCTINYVQSLRELYTDVIEEFYWVALPLTTQNSLSQYQPEWQCWEPDVEWVRQPPQDAITDPDFFCFYQPGMTFEQFVREFAEWFSQKRPAAMMIGIRADESYNRFVAIASLNKQRFADDKPWTTAAPGGHSWYIYPIYDWKVADIWTWYANHQSLCNPLYNLMYQAGVPLRHMRICEPFGPEQRQGLWLYHVIEPDRWAAMCARVSGVKSGGIYAGHDNHFYGHRKILKPEHLDWQEYALLLLNSMPEKTAEHYRNKIAIYLHWYQKKGIEVPQTQQGDIGAKDIPSWRRICKVLLNNDYWCRALSFSPTKSKNYQRYNERIKGKRQEWGILCNND | not soluble
MSKELFLEIGTEEIPAGFLPKAMADMEAIVTKELENARLAFGEVKTFATPRRLALVVKGLPTVQPDAEITALGPARNIAFGPDGTPSKAAEGFARGQGVDVASLTLVSTEKGEYVAAVRKESGRPVPDLLAEILPRLVGGIPFRKSMRWADLDVRFARPIHWIVALFDGVVVPFAFGNVQSGNVSRGHRFMANQPFPVRDFAHYLDECERHFVIPDPERRKETIRREIHRVAKTAGGHLLPDEGLLDEVAYLVEYPSVVHGTFSPDFLKVPREVLITSMRSHQRYFSIVDDAGKLMPGFITINNTLTEDPSVVVKGNERVLRARLSDARFFFEEDQKVKLETRVESLKNVVYQQKLGTSYEKMERFRALAEGLADLLNPAVKAKTSRAAFLCKADLVSGMVGEFPEVQGIMGREYALLQGEDAEVAAAIAEHYLPTQAGGDLPASDIGAFVSIADKLDTICGCFGVGLIPTGSADPYALRRSALGIINIILDRGCRLSLEGEIGKALELLSAKLTRPAAEVMADVLEFFRGRFVNLMADRYPADAVDAAIAAGFDD | not soluble
MSKGGWYLWHYLTLLKGKAYCDIYCKRITFNVKFRYVYRHFHWYSSSNNKFKQLEHHHHHH | not soluble
MSKIEQIITEIEEYIDNCKFQPLSTSKIIVNKDEIDELLAELRLRTPDEIKKYQKIIANKDAILNDAKERAEAMVSEATAHINQLVSEHEIMQKAYEEANQIIEQAQAEAQGILDSATTEANDLRTRAMQYTDDILANVQSILSTGMDSFESAQNTMMTSLNSSLNVVVESRKELGGAEDEESVENGEDDNLSVDLL | not soluble
MSKKLKPFEILEDSCASVCIWLNGEPTAISNRAENLWNKAKYRVATDGAVNEILKRKSFVEWPHIICGDFDSINKQIDTKNAKVVHLPDQDYTDLSKSVQWCLEQKTLTSWEFENIVVLGGLNGRFDHTMSTLSSLIRFVDSQTPVIVLDSRNLVLAVPTGDSNLDVNLEMTTKMCGIIPIVQKETIKTLLLNLENLSARRMKLPRAKYF | not soluble
MSKNMQNTSYRKLDVDSFDPEQYDENDETVDTPGLGPDERAVQGFLSSNRLEDALHAALLSPPLKTKDQNVKDRATQLVTKVLQSFKNAEIEATVQKLSIEESDILMKYVYKSMEIGADAAVCQSLLAWHAQLVAKFGHGAIMRVFSGRQRL | soluble
MSKPFKLNSAFKPSGDQPEAIRRLEEGLEDGLAHQTLLGVTGSGKTFTIANVIADLQRPTMVLAPNKTLAAQLYGEMKEFFPENAVEYFVSYYDYYQPEAYVPSSDTFIEKDASVNEHIEQMRLSATKAMLERRDVVVVASVSAIYGLGDPDLYLKMMLHLTVGMIIDQRAILRRLAELQYARNDQAFQRGTFRVRGEVIDIFPAESDDIALRVELFDEEVERLSLFDPLTGQIVSTIPRFTIYPKTHYVTPRERIVQAMEEIKEELAARRKVLLENNKLLEEQRLTQRTQFDLEMMNELGYCSGIENYSRFLSGRGPGEPPPTLFDYLPADGLLVVDESHVTIPQIGGMYRGDRARKETLVEYGFRLPSALDNRPLKFEEFEALAPQTIYVSATPGNYELEKSGGDVVDQVVRPTGLLDPIIEVRPVATQVDDLLSEIRQRAAINERVLVTTLTKRMAEDLTEYLEEHGERVRYLHSDIDTVERMEIIRDLRLGEFDVLVGINLLREGLDMPEVSLVAILDADKEGFLRSERSLIQTIGRAARNVNGKAILYGDKITPSMAKAIGETERRREKQQKYNEEHGITPQGLNKKVVDILALGQNIAKTKAKGRGKSRPIVEPDNVPMDMSPKALQQKIHELEGLMMQHAQNLEFEEAAQIRDQLHQLRELFIAAS | soluble
MSKPKYPFEKRLEVVNHYFTTDDGYRIISARFGVPRTQVRTWVALYEKHGEKGLIPKPKGVSADPELRIKVVKAVIEQHMSLNQAAAHFMLAGSGSVARWLKVYEERGEAGLRALKIGTKRNIAISVDPEKAASALELSKDRRIEDLERQVRFLETRLMYLKKLKALAHPTKK | not soluble
